Reference: PMC3884669

Biological target: Drosophila CstF64 (Drosophila (endogenous in Kc cells)) (UniProt Q86NL1)
Assay: co-IP

Drosophila Lsm11 (endogenous) (natural protein)
percent precipitated by the anti-CstF64 antibody: > 10%
